Assay results reported in PMC12416549 (2024).
Residue numbers refer to the chain shown, from its start. Numbers in names are those of the source.

T1: TNFR1 (Homo sapiens, UniProt P19438)
T1 chain: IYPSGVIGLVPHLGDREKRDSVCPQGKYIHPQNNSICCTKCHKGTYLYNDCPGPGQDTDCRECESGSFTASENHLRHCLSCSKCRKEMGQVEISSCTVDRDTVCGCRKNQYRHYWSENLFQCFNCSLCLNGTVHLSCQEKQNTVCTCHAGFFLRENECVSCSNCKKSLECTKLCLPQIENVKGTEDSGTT

B1: M1M (designed binder)
chain: MTLQELLREEALRRAEAEAFRYALELLAEKFPEQKEYLLDLAEEIESQIRSLSGVDVEDVRKFLDKEWAWVKELLAEHPAELAEVEAARAARLAELRAEVEAKVAA
B2: V100W (designed binder)
chain: B1 chain with V100W
B3: W68N (designed binder)
chain: B1 chain with W68N
B4: L7V (designed binder)
chain: B1 chain with L7V
B5: L74F (designed binder)
chain: B1 chain with L74F
B6: Q4T (designed binder)
chain: B1 chain with Q4T
B7: E25P (designed binder)
chain: B1 chain with E25P
B8: W68Y (designed binder)
chain: B1 chain with W68Y
B9: L82C (designed binder)
chain: B1 chain with L82C
B10: A42E (designed binder)
chain: B1 chain with A42E
B11: L3K (designed binder)
chain: B1 chain with L3K
B12: M1Q (designed binder)
chain: B1 chain with M1Q
B13: E46G (designed binder)
chain: B1 chain with E46G
B14: R97P (designed binder)
chain: B1 chain with R97P
B15: E5I (designed binder)
chain: B1 chain with E5I
B16: Q4Y (designed binder)
chain: B1 chain with Q4Y
B17: L93E (designed binder)
chain: B1 chain with L93E
B18: E101Q (designed binder)
chain: B1 chain with E101Q
B19: A87W (designed binder)
chain: B1 chain with A87W
B20: A23I (designed binder)
chain: B1 chain with A23I
B21: P32I (designed binder)
chain: B1 chain with P32I
B22: L82H (designed binder)
chain: B1 chain with L82H
B23: A94S (designed binder)
chain: B1 chain with A94S
B24: A15S (designed binder)
chain: B1 chain with A15S
B25: F20P (designed binder)
chain: B1 chain with F20P
B26: E18V (designed binder)
chain: B1 chain with E18V
B27: L38D (designed binder)
chain: B1 chain with L38D
B28: L26P (designed binder)
chain: B1 chain with L26P
B29: Q4D (designed binder)
chain: B1 chain with Q4D
B30: E95I (designed binder)
chain: B1 chain with E95I
B31: L39G (designed binder)
chain: B1 chain with L39G
B32: L27P (designed binder)
chain: B1 chain with L27P
B33: L96Y (designed binder)
chain: B1 chain with L96Y
B34: E9N (designed binder)
chain: B1 chain with E9N
B35: L27I (designed binder)
chain: B1 chain with L27I
B36: E44Y (designed binder)
chain: B1 chain with E44Y
B37: A102D (designed binder)
chain: B1 chain with A102D
B38: A91S (designed binder)
chain: B1 chain with A91S
B39: Q34Y (designed binder)
chain: B1 chain with Q34Y
B40: K30H (designed binder)
chain: B1 chain with K30H
B41: Y22R (designed binder)
chain: B1 chain with Y22R
B42: E18W (designed binder)
chain: B1 chain with E18W
B43: E67S (designed binder)
chain: B1 chain with E67S
B44: E81R (designed binder)
chain: B1 chain with E81R
B45: R13A (designed binder)
chain: B1 chain with R13A
B46: T2V (designed binder)
chain: B1 chain with T2V
B47: R8N (designed binder)
chain: B1 chain with R8N
B48: A11Y (designed binder)
chain: B1 chain with A11Y
B49: V71P (designed binder)
chain: B1 chain with V71P
B50: V100H (designed binder)
chain: B1 chain with V100H
B51: D40C (designed binder)
chain: B1 chain with D40C
B52: Q4E (designed binder)
chain: B1 chain with Q4E
B53: K103I (designed binder)
chain: B1 chain with K103I
B54: L82T (designed binder)
chain: B1 chain with L82T
B55: E84D (designed binder)
chain: B1 chain with E84D
B56: L24E (designed binder)
chain: B1 chain with L24E
B57: V85I (designed binder)
chain: B1 chain with V85I
B58: E10Q (designed binder)
chain: B1 chain with E10Q
B59: E101L (designed binder)
chain: B1 chain with E101L

Molecular target: T1, TNFR1
Experiment: yeast display SC50

| Binder | apparent Kd (screen) [pM] |
| --- | --- |
| B1 | 490 |
| B2 | 539 |
| B3 | 12500 |
| B4 | 2250 |
| B5 | 790 |
| B6 | 593 |
| B7 | 2250 |
| B8 | 490 |
| B9 | 593 |
| B10 | 956 |
| B11 | 2480 |
| B12 | 593 |
| B13 | 490 |
| B14 | 869 |
| B15 | 490 |
| B16 | 490 |
| B17 | 869 |
| B18 | 718 |
| B19 | 653 |
| B20 | 653 |

| Binder | apparent Kd (screen) [pM] |
| --- | --- |
| B21 | 490 |
| B22 | 593 |
| B23 | 593 |
| B24 | 539 |
| B25 | 7070 |
| B26 | 790 |
| B27 | 11400 |
| B28 | 13800 |
| B29 | 539 |
| B30 | 446 |
| B31 | 3000 |
| B32 | 7780 |
| B33 | 490 |
| B34 | 593 |
| B35 | 1270 |
| B36 | 7780 |
| B37 | 539 |
| B38 | 790 |
| B39 | 539 |
| B40 | 490 |

| Binder | apparent Kd (screen) [pM] |
| --- | --- |
| B41 | 593 |
| B42 | 446 |
| B43 | 6430 |
| B44 | 539 |
| B45 | 368 |
| B46 | 593 |
| B47 | 539 |
| B48 | 490 |
| B49 | 12500 |
| B50 | 869 |
| B51 | 790 |
| B52 | 790 |
| B53 | 1050 |
| B54 | 653 |
| B55 | 490 |
| B56 | 869 |
| B57 | 593 |
| B58 | 13800 |
| B59 | 593 |
